Assay results as given in publication PMC10873344.

How the values were obtained:
[1] = target: mouse SEL1L S658P/F668Y-FLAG (mouse); test: co-IP; anti-FLAG agarose IP from lysates of SEL1L-/- HEK293T cells transfected with SEL1L-FLAG variants, blots for endogenous partners; 150 mM NaCl, 0.2% NP-40, 0.1% Triton X-100, 25 mM Tris-HCl pH 7.5, overnight at 4 C
[2] = target: SEL1L^S658P, endogenous mouse (homozygous KI liver) (mouse (endogenous in liver)); test: co-IP; IP of endogenous SEL1L or HRD1 (home-made antibody, protein A agarose) from livers of 5-week-old WT, HET and KI mice; 150 mM NaCl, 1% NP-40, 25 mM Tris-HCl pH 7.5
[3] = target: HRD1 (HMG-CoA reductase degradation 1), endogenous human, Q86TM6-3; test: co-immunoprecipitation (FLAG-agarose IP, Western blot quantitation); settings: SEL1L-/- HEK293T cells; n = 3; mean ± SEM; parent: est. 1.0; read off a plot
[4] = target: OS9 (Osteosarcoma amplified 9), endogenous human (UniProt Q13438); test: as above; settings: SEL1L-/- HEK293T cells; n = 3; mean ± SEM; parent: est. 1.0; read off a plot
[5] = target: HRD1 (HMG-CoA reductase degradation 1), endogenous human, Q86TM6-3; test: as above; settings: SEL1L-/- HEK293T cells; n = 3; mean ± SEM; parent: est. 1.0; read off a plot; remark: listed apart in the source
[6] = target: OS9 (Osteosarcoma amplified 9), endogenous human (UniProt Q13438); test: as above; settings: SEL1L-/- HEK293T cells; n = 3; mean ± SEM; parent: est. 1.0; read off a plot; remark: listed apart in the source

Chain of HRD1 (HMG-CoA reductase degradation 1), endogenous human, Q86TM6-3 (Q86TM6 other isoform, or with tags, fused parts or gaps): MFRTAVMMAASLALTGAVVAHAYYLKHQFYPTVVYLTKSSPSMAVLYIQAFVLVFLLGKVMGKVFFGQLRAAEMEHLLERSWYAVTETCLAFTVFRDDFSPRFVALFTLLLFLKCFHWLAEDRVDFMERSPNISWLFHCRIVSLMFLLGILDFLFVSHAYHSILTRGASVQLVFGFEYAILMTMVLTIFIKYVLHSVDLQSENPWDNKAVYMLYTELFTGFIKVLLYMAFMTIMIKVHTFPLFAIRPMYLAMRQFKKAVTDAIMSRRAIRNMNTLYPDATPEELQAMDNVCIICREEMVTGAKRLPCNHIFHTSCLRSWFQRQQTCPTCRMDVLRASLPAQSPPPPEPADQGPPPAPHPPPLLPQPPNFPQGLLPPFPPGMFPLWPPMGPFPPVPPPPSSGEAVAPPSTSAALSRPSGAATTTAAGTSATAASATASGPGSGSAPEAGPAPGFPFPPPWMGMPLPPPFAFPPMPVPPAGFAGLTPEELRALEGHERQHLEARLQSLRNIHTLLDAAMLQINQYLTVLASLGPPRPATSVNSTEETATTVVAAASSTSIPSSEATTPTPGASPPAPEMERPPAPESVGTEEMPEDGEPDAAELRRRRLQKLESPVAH
Chain of UniProt Q13438 (Q13438 26-667): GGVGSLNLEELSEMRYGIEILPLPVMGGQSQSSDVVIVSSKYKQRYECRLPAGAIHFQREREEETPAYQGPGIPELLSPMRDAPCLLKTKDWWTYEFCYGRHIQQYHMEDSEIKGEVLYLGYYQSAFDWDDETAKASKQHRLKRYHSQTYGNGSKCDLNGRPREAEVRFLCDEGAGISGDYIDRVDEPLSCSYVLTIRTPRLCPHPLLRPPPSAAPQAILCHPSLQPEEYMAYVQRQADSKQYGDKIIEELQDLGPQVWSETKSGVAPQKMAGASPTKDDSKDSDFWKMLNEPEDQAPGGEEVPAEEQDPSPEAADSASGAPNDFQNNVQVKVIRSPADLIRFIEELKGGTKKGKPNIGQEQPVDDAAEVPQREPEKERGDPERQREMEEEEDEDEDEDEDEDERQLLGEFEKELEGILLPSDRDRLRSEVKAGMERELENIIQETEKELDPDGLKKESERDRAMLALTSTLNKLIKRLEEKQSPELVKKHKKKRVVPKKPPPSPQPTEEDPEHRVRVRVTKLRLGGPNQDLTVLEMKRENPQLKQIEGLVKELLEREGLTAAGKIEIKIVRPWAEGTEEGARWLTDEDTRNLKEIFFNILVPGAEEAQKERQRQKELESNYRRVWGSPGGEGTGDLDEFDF

| response [3] [a.u.] | response [4] [a.u.] | response [6] [a.u.] | Substance | further results |
| --- | --- | --- | --- | --- |
| – | – | – | HRD1 (HMG-CoA reductase degradation 1), endogenous human (from UniProt Q86TM6-3 1-616) (enzyme) | fold increase against SEL1L S658P [1]: 2 fold |
| – | – | – | HRD1, endogenous mouse (liver) (from UniProt Q9DBY1 1-612) (enzyme) | fold reduction against WT and HET livers [2]: 5 fold |
| 0.07 | 1 | – | mouse SEL1L (WT)-FLAG (from UniProt Q9Z2G6-1) F668A | – |
| – | – | 1 | mouse SEL1L (WT)-FLAG (from UniProt Q9Z2G6-1) F668Y | response [5]: 0.9 a.u. |
| 0.15 | 1 | 0.95 | mouse SEL1L (WT)-FLAG (from UniProt Q9Z2G6-1) S658P | response [5]: 0.17 a.u. |
| 0.11 | 0.97 | – | mouse SEL1L (WT)-FLAG (from UniProt Q9Z2G6-1) S658P; F668A | – |
| – | – | 0.95 | mouse SEL1L (WT)-FLAG (from UniProt Q9Z2G6-1) S658P; F668Y | – |
